Data taken from the supplement of paper PMC11316812.
± gives the standard deviation of the averaged measurements.

Tests used:
hTERT-HMEC = assay: percentage of EdU-negative (G0-arrested) nuclei per well, 72 h; higher = more G0 arrest; conditions: reference: sequence is the full UniProt precursor, the tested protein was the secreted form or ectodomain
MCF7 = assay: as above; conditions: reference: sequence is the full UniProt precursor, the tested protein was the secreted form or ectodomain
[1] = protein concentration 0.0225 µM
[2] = protein concentration 0.0357143 µM
[3] = protein concentration 0.357143 µM
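Also: secreted proteins added to cultured cells, EdU pulse at the end, nuclei found by Hoechst imaging, EdU status from nuclear versus surrounding ring intensity ratio, PBS as neutral control.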

Sequence: MMLRLLSSLLLVAVASGYGPPSSRPSSRVVNGEDAVPYSWPWQVSLQYEKSGSFYHTCGGSLIAPDWVVTAGHCISSSRTYQVVLGEYDRAVKEGPEQVIPINSGDLFVHPLWNRSCVACGNDIALIKLSRSAQLGDAVQLASLPPAGDILPNETPCYITGWGRLYTNGPLPDKLQEALLPVVDYEHCSRWNWWGSSVKKTMVCAGGDIRSGCNGDSGGPLNCPTEDGGWQVHGVTSFVSAFGCNTRRKPTVFTRVSAFIDWIEETIASH
- percentage of EdU-negative (hTERT-HMEC; protein concentration 0.022 µM): 5.18 ± 0.89%
- percentage of EdU-negative (hTERT-HMEC; protein concentration 0.22 µM): 8.27 ± 2%
- percentage of EdU-negative (MCF7; protein concentration 0.022 µM): 25.2 ± 2.1%
- percentage of EdU-negative (MCF7; protein concentration 0.22 µM): 29.66 ± 0.19%

Sequence: MMLRVLVGAVLPAMLLAAPPPINKLALFPDKSAWCEAKNITQIVGHSGCEAKSIQNRACLGQCFSYSVPNTFPQSTESLVHCDSCMPAQSMWEIVTLECPGHEEVPRVDKLVEKILHCSCQACGKEPSHEGLSVYVQGEDGPGSQPGTHPHPHPHPHPGGQTPEPEDPPGAPHTEEEGAED
- percentage of EdU-negative (hTERT-HMEC; [1]): 5.79 ± 0.84%
- percentage of EdU-negative (hTERT-HMEC; protein concentration 0.225 µM): 5.88 ± 0.42%
- percentage of EdU-negative (MCF7; [1]): 25.6 ± 1.4%
- percentage of EdU-negative (MCF7; protein concentration 0.225 µM): 24.7 ± 0.79%

Sequence: MMPKHCFLGFLISFFLTGVAGTQSTHESLKPQRVQFQSRNFHNILQWQPGRALTGNSSVYFVQYKIMFSCSMKSSHQKPSGCWQHISCNFPGCRTLAKYGQRQWKNKEDCWGTQELSCDLTSETSDIQEPYYGRVRAASAGSYSEWSMTPRFTPWWETKIDPPVMNITQVNGSLLVILHAPNLPYRYQKEKNVSIEDYYELLYRVFIINNSLEKEQKVYEGAHRAVEIEALTPHSSYCVVAEIYQPMLDRRSQRSEERCVEIP [Q969J5]
- percentage of EdU-negative (hTERT-HMEC; [1]): 4.89 ± 0.64%
- percentage of EdU-negative (hTERT-HMEC; protein concentration 0.225 µM): 5.48 ± 0.17%
- percentage of EdU-negative (MCF7; [1]): 24.1 ± 0.85%
- percentage of EdU-negative (MCF7; protein concentration 0.225 µM): 27.2 ± 3%

Sequence: MMQKLLKCSRLVLALALILVLESSVQGYPTRRARYQWVRCNPDSNSANCLEEKGPMFELLPGESNKIPRLRTDLFPKTRIQDLNRIFPLSEDYSGSGFGSGSGSGSGSGSGFLTEMEQDYQLVDESDAFHDNLRSLDRNLPSDSQDLGQHGLEEDFML
- percentage of EdU-negative (hTERT-HMEC; [1]): 5.29 ± 0.12%
- percentage of EdU-negative (hTERT-HMEC; protein concentration 0.225 µM): 5.72 ± 0.97%
- percentage of EdU-negative (MCF7; [1]): 24.3 ± 3.3%
- percentage of EdU-negative (MCF7; protein concentration 0.225 µM): 26 ± 1.7%

Sequence: MMRCCRRRCCCRQPPHALRPLLLLPLVLLPPLAAAAAGPNRCDTIYQGFAECLIRLGDSMGRGGELETICRSWNDFHACASQVLSGCPEEAAAVWESLQQEARQAPRPNNLHTLCGAPVHVRERGTGSETNQETLRATAPALPMAPAPPLLAAALALAYLLRPLA [Q496H8]
- percentage of EdU-negative (hTERT-HMEC; [1]): 4.98 ± 0.36%
- percentage of EdU-negative (hTERT-HMEC; protein concentration 0.225 µM): 5.04 ± 1.6%
- percentage of EdU-negative (MCF7; [1]): 24.2 ± 1.7%
- percentage of EdU-negative (MCF7; protein concentration 0.225 µM): 23.3 ± 0.52%

Sequence: MMRTCVLLSAVLWCLTGVQCPRFTLFNKKGFIYGKTGQPDKIYVELHQNSPVLICMDFKLSKKEIVDPTYLWIGPNEKTLTGNNRINITETGQLMVKDFLEPLSGLYTCTLSYKTVKAETQEEKTVKKRYDFMVFAYREPDYSYQMAVRFTTRSCIGRYNDVFFRVLKKILDSLISDLSCHVIEPSYKCHSVEIPEHGLIHELFIAFQVNPFAPGWKGACNGSVDCEDTTNHNILQARDRIEDFFRSQAYIFYHNFNKTLPAMHFVDHSLQVVRLDSCRPGFGKNERLHSNCASCCVVCSPATFSPDVNVTCQTCVSVLTYGAKSCPQTSNKNQQYED [Q6X784]
- percentage of EdU-negative (hTERT-HMEC; [2]): 4.95 ± 0.69%
- percentage of EdU-negative (hTERT-HMEC; [3]): 6.88 ± 0.23%
- percentage of EdU-negative (MCF7; [2]): 24.6 ± 1.8%
- percentage of EdU-negative (MCF7; [3]): 28.8 ± 3.5%

Sequence: MMSFLLGAILTLLWAPTAQAEVLLQPDFNAEKFSGLWYVVSMASDCRVFLGKKDHLSMSTRAIRPTEEGGLHVHMEFPGADGCNQVDAEYLKVGSEGHFRVPALGYLDVRIVDTDYSSFAVLYIYKELEGALSTMVQLYSRTQDVSPQALKSFQDFYPTLGLPKDMMVMLPQSDACNPESKEAP [Q6UWW0]
- percentage of EdU-negative (hTERT-HMEC; [1]): 5.79 ± 0.094%
- percentage of EdU-negative (hTERT-HMEC; protein concentration 0.225 µM): 6.89 ± 0.15%
- percentage of EdU-negative (MCF7; [1]): 26.2 ± 2.2%
- percentage of EdU-negative (MCF7; protein concentration 0.225 µM): 25.9 ± 0.71%

Sequence: MMSFVQKGSWLLLALLHPTIILAQQEAVEGGCSHLGQSYADRDVWKPEPCQICVCDSGSVLCDDIICDDQELDCPNPEIPFGECCAVCPQPPTAPTRPPNGQGPQGPKGDPGPPGIPGRNGDPGIPGQPGSPGSPGPPGICESCPTGPQNYSPQYDSYDVKSGVAVGGLAGYPGPAGPPGPPGPPGTSGHPGSPGSPGYQGPPGEPGQAGPSGPPGPPGAIGPSGPAGKDGESGRPGRPGERGLPGPPGIKGPAGIPGFPGMKGHRGFDGRNGEKGETGAPGLKGENGLPGENGAPGPMGPRGAPGERGRPGLPGAAGARGNDGARGSDGQPGPPGPPGTAGFPGSPGAKGEVGPAGSPGSNGAPGQRGEPGPQGHAGAQGPPGPPGINGSPGGKGEMGPAGIPGAPGLMGARGPPGPAGANGAPGLRGGAGEPGKNGAKGEPGPRGERGEAGIPGVPGAKGEDGKDGSPGEPGANGLPGAAGERGAPGFRGPAGPNGIPGEKGPAGERGAPGPAGPRGAAGEPGRDGVPGGPGMRGMPGSPGGPGSDGKPGPPGSQGESGRPGPPGPSGPRGQPGVMGFPGPKGNDGAPGKNGERGGPGGPGPQGPPGKNGETGPQGPPGPTGPGGDKGDTGPPGPQGLQGLPGTGGPPGENGKPGEPGPKGDAGAPGAPGGKGDAGAPGERGPPGLAGAPGLRGGAGPPGPEGGKGAAGPPGPPGAAGTPGLQGMPGERGGLGSPGPKGDKGEPGGPGADGVPGKDGPRGPTGPIGPPGPAGQPGDKGEGGAPGLPGIAGPRGSPGERGETGPPGPAGFPGAPGQNGEPGGKGERGAPGEKGEGGPPGVAGPPGGSGPAGPPGPQGVKGERGSPGGPGAAGFPGARGLPGPPGSNGNPGPPGPSGSPGKDGPPGPAGNTGAPGSPGVSGPKGDAGQPGEKGSPGAQGPPGAPGPLGIAGITGARGLAGPPGMPGPRGSPGPQGVKGESGKPGANGLSGERGPPGPQGLPGLAGTAGEPGRDGNPGSDGLPGRDGSPGGKGDRGENGSPGAPGAPGHPGPPGPVGPAGKSGDRGESGPAGPAGAPGPAGSRGAPGPQGPRGDKGETGERGAAGIKGHRGFPGNPGAPGSPGPAGQQGAIGSPGPAGPRGPVGPSGPPGKDGTSGHPGPIGPPGPRGNRGERGSEGSPGHPGQPGPPGPPGAPGPCCGGVGAAAIAGIGGEKAGGFAPYYGDEPMDFKINTDEIMTSLKSVNGQIESLISPDGSRKNPARNCRDLKFCHPELKSGEYWVDPNQGCKLDAIKVFCNMETGETCISANPLNVPRKHWWTDSSAEKKHVWFGESMDGGFQFSYGNPELPEDVLDVHLAFLRLLSSRASQNITYHCKNSIAYMDQASGNVKKALKLMGSNEGEFKAEGNSKFTYTVLEDGCTKHTGEWSKTVFEYRTRKAVRLPIVDIAPYDIGGPDQEFGVDVGPVCFL
- percentage of EdU-negative (hTERT-HMEC; [1]): 4.96 ± 0.66%
- percentage of EdU-negative (hTERT-HMEC; protein concentration 0.225 µM): 6.99 ± 0.87%
- percentage of EdU-negative (MCF7; [1]): 26.55 ± 0.19%
- percentage of EdU-negative (MCF7; protein concentration 0.225 µM): 27.4 ± 1.2%
